Self-cleavage data for 54 variants are collected here from the RNAGym collection of RNA variant scans (doi:10.7554/elife.80360).

B1: Twister Ribozyme (parent)
chain: AACACUGCCAAUGCCGGUCCCAAGCCCGGAUAAAAGUGGAGGGGGCGG

Variants of B1 are the subject of the data set. Kind of data set: self-cleavage, relative activity (ratio to wild type); higher = more cleavage; co-transcriptional.
For the variant AACACUUCCAAUGCCGGUCCCACGCCCGGAUAAAAGUGGAGGGGGCGG, the self-cleavage came to 0.0594.
With AACACUUCCAAUGCCGGUCCCAGGCCCGGAUAAAAGUGGAGGGGGCGG, the self-cleavage was 0.0791.
As for AACACUUCCAAUGCCGGUCCCAAGCCCGGAUAAAAGUGUAGGGGGCGG, the self-cleavage turned out to be 0.0651.
Under AACACUUCCAAUGCCGGUCCCAAGCCCGGGUAAAAGUGGAGGGGGCGG stands 0.163.
Under AACACUUCCAAUGCCGGUACCAAGCCCGGAUAAAAGUGGAGGGGGCGG stands 0.0864; under AACACUUCCAAUGCCGCUCCCAAGCCCGGAUAAAAGUGGAGGGGGCGG, 0.0441; under AACACUUCCAAUGCCGAUCCCAAGCCCGGAUAAAAGUGGAGGGGGCGG, 0.0885.
Under AACACUUCCAAUGCCGGUCCCAAGCCCGGAUAAAAGUGGCGGGGGCGG stands 0.0967.
For the variant AACACUUCCAAUGCCGGUCCCAAGCCCGGAUAAAAGUGGUGGGGGCGG, the self-cleavage came to 0.072.
Then AACACUUCCAAUGCCGGUCCCAAGCCCGGAUAAAAGUGGGGGGGGCGG, with 0.0793.
Then AACACUUCCAAUGCCGGUCCCAAGCCCGGAUAAAAGUGGAGGGGGCGG, with 0.143; and AACACUUCCAAUGCCGGUCCCAAGCCCGGAUAAAAGUGGAGGUGGCGG, with 0.102; and AACACUCCCAAUGCCGGUCCCAAGCCCGGAUAAAAGUGGAGGGGGCGU, with 0.0851.
Under AACACUCCCAAUGCCGGUCCCAAGCCCGGAUAAAAGUGGAGGGGGCGA stands 0.0718.
Turning to AACACUCCCAAUUCCGGUCCCAAGCCCGGAUAAAAGUGGAGGGGGCGG, the self-cleavage came out at 0.0637.
Then AACACUCCCAAUGCCGGUCCCAAGCCCGGAUAAAAGUGGAGUGGGCGG, with 0.0563.
In the case of AACACUUCCAAUGCCGGUCCCAAGCCCGGAUAAAAGUAGAGGGGGCGG, the self-cleavage is 0.0965.
Under AACACUUCCAAUGCCGGUCCCAAGCCCUGAUAAAAGUGGAGGGGGCGG stands 0.0862; under AACACUUCCAAUGCCGGUCCCAAGCCCCGAUAAAAGUGGAGGGGGCGG, 0.0665; under AACACUUACAAUGCCGGUCCCAAGCCCGGAUAAAAGUGGAGGGGGCGG, 0.0463.
Then AACACUUUCAAUGCCGGUCCCAAGCCCGGAUAAAAGUGGAGGGGGCGG, with 0.0467; and AACACUUCCAAUGCCGGUCCCAAGCCCGGAUCAAAGUGGAGGGGGCGG, with 0.0917; and AACACUUCCAAUGCCGGUCCCAAGCCCGGAUAAAAGUGGAAGGGGCGG, with 0.0662.
Then AACACUUCCAAUGCCGGUCCCAAGCCCGGAUAAAAGUGGAUGGGGCGG, with 0.0899; and AACACUGACAAUGCCGGUCCCAUGCCCGGAUAAAAGUGGAGGGGGCGG, with 0.0553.
Consider AACACUGACAAUGCCGGUCCCACGCCCGGAUAAAAGUGGAGGGGGCGG, for which the self-cleavage came to 0.0825.
Then AACACUGACAAUGCCGGUCCCAGGCCCGGAUAAAAGUGGAGGGGGCGG, with 0.0496.
With AACACUCCCAAUGCCGGUCCCAAGCCCGGAUAAAAGUGGAGGGGACGG, the self-cleavage stood at 0.0964.
Under AACACUCCCAAUGCCGGUCCCAAGCCCGGAUAAAAGUGGAGGGGCCGG stands 0.0912; under AACACUCCCAAUGCCGGUCCCAAGCCCGGAUAAAAGAGGAGGGGGCGG, 0.0472.
Then AACACUCCCAAUGCCGGUCCCAAGCCCGGAUAAAAGGGGAGGGGGCGG, with 0.062.
Under AACACUCCCAAUGCCGGUCCCAAGCCCGGAUAAAAGUGGAAGGGGCGG stands 0.0519.
For AACACUUCCAAUUCCGGUCCCAAGCCCGGAUAAAAGUGGAGGGGGCGG, the self-cleavage stood at 0.0485.
As for AACACUUCCAAUGCCGGCCCCAAGCCCGGAUAAAAGUGGAGGGGGCGG, the self-cleavage came to 0.0819.
Under AACACUUCCAAUGCCGGGCCCAAGCCCGGAUAAAAGUGGAGGGGGCGG stands 0.0649.
Then AACACUUCCAAUGCCGGACCCAAGCCCGGAUAAAAGUGGAGGGGGCGG, with 0.0251; and AACACUCCCAAUGCCGGCCCCAAGCCCGGAUAAAAGUGGAGGGGGCGG, with 0.0305; and AACACUCCCAAUGCCGGGCCCAAGCCCGGAUAAAAGUGGAGGGGGCGG, with 0.0952.
Then AACACUCCCAAUGCCGGUCCCAAGCCCGGAUAAAAGUGGAGGGCGCGG, with 0.0685; and AACACUUCCAAUGCCGGUCCCAAGCCCGGACAAAAGUGGAGGGGGCGG, with 0.111; and AACACUUCCAAUGCCGGUCCCAAGCCCGUAUAAAAGUGGAGGGGGCGG, with 0.0673.
As for AACACUUCCAAUGCGGGUCCCAAGCCCGGAUAAAAGUGGAGGGGGCGG, the self-cleavage was 0.0331.
Then AACACUUCCAAUGCUGGUCCCAAGCCCGGAUAAAAGUGGAGGGGGCGG, with 0.101.
Regarding AACACUUCCAAUGCCGGUCGCAAGCCCGGAUAAAAGUGGAGGGGGCGG, the self-cleavage worked out at 0.0693.
Under AACACUUCCAAUGCCGGUCUCAAGCCCGGAUAAAAGUGGAGGGGGCGG stands 0.0823; under AACACUUCCAAUGCCGGUCCCAAGCCCGGAUAAAAGUGGAGGGGCCGG, 0.118; under AACACUUCCAAUGGCGGUCCCAAGCCCGGAUAAAAGUGGAGGGGGCGG, 0.0477.
For the variant AACACUUCCAAUGACGGUCCCAAGCCCGGAUAAAAGUGGAGGGGGCGG, the self-cleavage was found to be 0.133.
Then AACACUUCCAGUGCCGGUCCCAAGCCCGGAUAAAAGUGGAGGGGGCGG, with 0.131; and AACACUCCCAAUGCCGGUCCCAAGCCCGGAUAAAAGUGUAGGGGGCGG, with 0.058.
Under AACACUCCCAAUGCCGGUCCCAAGCCCGGAUAAAAGUGAAGGGGGCGG stands 0.0735; under AACACUUCCAAUGCCGGUCCCAAGGCCGGAUAAAAGUGGAGGGGGCGG, 0.401; under AACACUUCCAAUGCCGGUCCAAAGCCCGGAUAAAAGUGGAGGGGGCGG, 0.0755.
Then AACACUCCCAAUGCCGGUCCCAAUCCCGGAUAAAAGUGGAGGGGGCGG, with 0.0628.
